# From article PMC5422525
# Experiments:
# [1] = target: Escherichia coli ClpX (E. coli) (UniProt P0A6H1)
# [2] = target: Caulobacter crescentus ClpX (C. crescentus) (UniProt B8GX14)
# Chain of UniProt B8GX14 (B8GX14 whole entry): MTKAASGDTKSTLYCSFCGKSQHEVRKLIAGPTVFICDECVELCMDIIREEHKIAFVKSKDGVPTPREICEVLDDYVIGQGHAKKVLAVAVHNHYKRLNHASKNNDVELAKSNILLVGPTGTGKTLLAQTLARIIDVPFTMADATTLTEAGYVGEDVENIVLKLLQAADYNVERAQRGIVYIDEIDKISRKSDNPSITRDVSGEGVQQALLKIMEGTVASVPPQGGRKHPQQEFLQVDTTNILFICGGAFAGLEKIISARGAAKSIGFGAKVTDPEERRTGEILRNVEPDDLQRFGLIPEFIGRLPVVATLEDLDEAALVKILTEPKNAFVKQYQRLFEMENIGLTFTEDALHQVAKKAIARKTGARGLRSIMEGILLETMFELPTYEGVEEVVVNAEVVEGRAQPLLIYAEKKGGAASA
# Chain of UniProt P0A6H1 (P0A6H1 whole entry): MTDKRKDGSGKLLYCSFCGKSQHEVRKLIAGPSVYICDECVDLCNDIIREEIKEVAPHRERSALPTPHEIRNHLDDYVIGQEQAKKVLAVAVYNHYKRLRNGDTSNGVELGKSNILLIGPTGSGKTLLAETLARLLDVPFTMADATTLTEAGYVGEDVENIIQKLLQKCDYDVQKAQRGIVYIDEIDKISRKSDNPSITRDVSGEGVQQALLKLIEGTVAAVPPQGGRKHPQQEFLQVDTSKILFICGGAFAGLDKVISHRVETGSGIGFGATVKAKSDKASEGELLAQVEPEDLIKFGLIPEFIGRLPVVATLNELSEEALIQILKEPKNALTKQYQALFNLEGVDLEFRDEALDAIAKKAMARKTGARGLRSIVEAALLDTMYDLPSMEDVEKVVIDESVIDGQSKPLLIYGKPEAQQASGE
Substance,"K (activation): degradation of 1 uM GFP-ssrA by 50 nM ClpX6 with varying concentrations of ClpP14, initial rates fitted to a first-order binding equation [1] [nM]","K (activation): degradation of 1 uM GFP-ssrA by 50 nM ClpX6 with varying concentrations of ClpP14, initial rates fitted to a first-order binding equation [2] [nM]"
Escherichia coli ClpP (from UniProt P0A6G7 15-207) (enzyme),24.1,
Caulobacter crescentus ClpP (from UniProt B8GX16 1-209) (enzyme),12.1,9.1
